In patent US9187762B2, “Compositions and methods comprising sequences having hydroxyphenylpyruvate dioxygenase (HPPD) activity” (PIONEER HI-BRED INTERNATIONAL, INC., priority 2010, dated 2015):

Columns and labels:
soybean plants = test: Herbicide spray tests of transgenic HPPD soy plants (T1/T2) with multiple HPPD-inhibitor herbicides, visual injury; type: in vivo; settings: T1 plants, V1 stage; mesotrione, tembotrione, topramezone, isoxaflutole
Procedure: T1 plants were evaluated for zygosity. Homozygous single-locus transgenic plants and their corresponding null segregants were identified and T2 true breeding seed was obtained from each. Plants were grown to the V1 to V2 growth stage and then sprayed with the commercial formulation of mesotrione, tembotrione, topramezone, and isoxaflutole. All treatments were applied with nonionic surfactant and ammonium sulfate in a spray volume of 374 L/ha. Multiple rates of each herbicide were applied so a response range could be used to compare the relative tolerance of the different herbicides as well as the relative tolerance of homozygous nulls and positives for each event. The herbicide response for individual treated plants was evaluated by comparing to untreated plants of similar genetic background. Herbicide response ratings were eight days after treatment. Visual injury was on a scale of 0 to 100% injury (0=no effect to 100=dead plant).
T1 soybean plants expressing D0223903 (SEQ ID NO: 3) driven by a synthetic promoter (as described in U.S. Pat. No. 6,072,050) were evaluated with qPCR for the presence of the transgene and null and positive segregants selected. Plants were sprayed at the V1 growth stage with the commercial formulations of mesotrione, tembotrione, topramezone, and isoxaflutole. Two rates of each herbicide were applied foliarly with nonionic surfactant and ammonium sulfate in a spray volume of 374 L/ha. The herbicide response for individual plants was determined by comparing to untreated plants of similar genetic background. Visual injury was on a scale of 0 to 100% injury (0=no effect to 100=dead plant).

maize HPPD [1] = test: KD by isothermal titration calorimetry; type: binding
Procedure: To verify that the insensitivity parameter reflects improvement (elevation) in KD, KD was directly measured with isothermal titration calorimetry. […] Enzymes were transferred to a matrix of 25 mM Hepes, pH 7, 2 mM ascorbate and 10 uM FeSO4 by gel-filtration chromatography. Mesotrione or tembotrione were diluted into the same buffer. Enzyme concentrations in the cell ranged from 100 to 300 uM. Inhibitor concentrations in the syringe were always 8 times that of the cell concentration.

maize HPPD [2] = test: ON rate ratio, OFF rate ratio and insensitivity parameter with herbicidal HPPD inhibitors; type: biochemical
From the text: To devise a parameter for detecting changes in inhibitor binding affinity, KD, one can utilize the relationship between KD and the rates of binding and release of inhibitor to and from the enzyme. [formula] Higher KD (reduced affinity or increased insensitivity) can be attained with a numerically smaller ON rate, a larger OFF rate or both. […] The ratio of the reaction rate with inhibitor to that without inhibitor during the 70 to 90 second interval of the reaction was termed the “ON rate ratio”. […] Incubations with the same concentrations of enzyme but no mesotrione were done in parallel. After 1 hr at room temperature, 5 to 10 ul of the enzyme-inhibitor complex was dispensed into the wells of the assay plate. Reactions were started with the addition of 290 to 295 ul of 25 mM Hepes, pH 7, 2 mM ascorbate, 10 uM FeSO4, 100 uM HPP and 50 nM HGD. The reactions were monitored at 320 nm for 12 min. Reaction velocity accelerates as inhibitor is released from the enzyme until a steady state is reached, during which the reaction velocity is constant. The ratio of the steady state rate in mixtures containing mesotrione (or other herbicidal inhibitor) to the initial velocity of mixtures lacking inhibitor is termed the “OFF rate ratio”. Another parameter to record is the time span required for the reactions with inhibitor to reach the steady state. […] It is not certain that the steady state attained in the OFF rate reactions actually represents an equilibrium where OFF rates are now equal to ON rates. Because substrate and inhibitors bind in the same site, the high concentration of substrate present may competitively trap the inhibitor and prevent it from binding again. To be sure that improvement in ON rates is being taken into account, the ON and OFF rate ratios were multiplied together and the product is termed the “insensitivity parameter”. […] The variants in Table 9 were grouped according to the parameter in which they are improved compared to wild type. The sequence positions are numbered according to the wild-type maize amino acid sequence of SEQ ID 1. Some substitutions are effective in multiple contexts, as discussed in the next section.

B1: D0223903: shuffled maize HPPD variant, SEQ ID NO: 3; R341C mutation introduced into HPPD D0193494 (protein)
chain: MGPTPTATAAGAAVAAASAAEQAAFRLVGHRNFVRFNPRSDRFHTLAFHHVELWCADAASAAGRFSFALGAPLAARSDLSTGNSAHASLLLRSGSLSFLFTAPYAHGADAATAALPSFSAAAARRFAADHGLAVRAVALRVADAEDAFRASVAAGARPAFGPVDLGRGFRLAEVELYGDVVLRYVSYPDGAAGEPFLPGFEGVASPGAADYGLSRFDHIVGNVPELAPAAAYFAGFTGFHEFAEFTTEDVGTAESGLNSMALANNSENVLLPLNEPVHGTKRRSQIQTFLDHHGGPGVQHIALASDDVLRTLREMQARSAMGGFEFLPPPPSDYYDGVRRCAGDVLTEAQINECQELGVLVDRDDQGVLLQIFTKPVGDRPTFFLEIIQRIGCMEKDEKGQEYQKGGCGGFGKGNFSQLFKSIEDYEKSLEAKQAAAAATAQGS
modifications: HPPD variant
notes: R341C mutation introduced into HPPD D0193494
Soybean plants
  soybean tolerance to HPPD-inhibitor herbicides: increased soybean tolerance
Maize HPPD [1]; Mesotrione, sites modeled: One
  Fold vs wt (KD): 3.6
Maize HPPD [1]; Mesotrione, sites modeled: Two
  Fold vs wt (KD): 4.9
Maize HPPD [1]; Tembotrione, sites modeled: Two
  Fold vs wt (KD): 7.3
Maize HPPD [2]; Isoxaflutole (diketonitrile)
  Insensitivity parameter (ON rate ratio × OFF rate ratio) relative to that of maize wild-type HPPD: 12.3
Maize HPPD [2]; Sulcotrione
  Insensitivity parameter (ON rate ratio × OFF rate ratio) relative to that of maize wild-type HPPD: 3.3
Maize HPPD [2]; Topramezone
  Insensitivity parameter (ON rate ratio × OFF rate ratio) relative to that of maize wild-type HPPD: 12.7
Maize HPPD [2]; inhibitor Isoxaflutole (diketonitrile)
  Triple product (ON rate ratio × OFF rate ratio × kcat), relative to that of maize wild-type HPPD: 7.7
Maize HPPD [2]; inhibitor Mesotrione
  Triple product (ON rate ratio × OFF rate ratio × kcat), relative to that of maize wild-type HPPD: 3.7
Maize HPPD [2]; inhibitor Sulcotrione
  Triple product (ON rate ratio × OFF rate ratio × kcat), relative to that of maize wild-type HPPD: 2.1
Maize HPPD [2]; inhibitor Tembotrione
  Triple product (ON rate ratio × OFF rate ratio × kcat), relative to that of maize wild-type HPPD: 12.1
Maize HPPD [2]; inhibitor Topramezone
  Triple product (ON rate ratio × OFF rate ratio × kcat), relative to that of maize wild-type HPPD: 8.0
Maize HPPD [2]; mesotrione
  Insensitivity parameter (ON rate ratio × OFF rate ratio) relative to that of maize wild-type HPPD: 6.0
Maize HPPD [2]; tembotrione
  Insensitivity parameter (ON rate ratio × OFF rate ratio) relative to that of maize wild-type HPPD: 19.3
